Measured values: publication PMC6685660

How the values were obtained:
Assay in all cases: EMSA
[1] = target: T1, AaNPR1 (Artemisia annua, UniProt A0A481P8F5 1-569)
T1 sequence: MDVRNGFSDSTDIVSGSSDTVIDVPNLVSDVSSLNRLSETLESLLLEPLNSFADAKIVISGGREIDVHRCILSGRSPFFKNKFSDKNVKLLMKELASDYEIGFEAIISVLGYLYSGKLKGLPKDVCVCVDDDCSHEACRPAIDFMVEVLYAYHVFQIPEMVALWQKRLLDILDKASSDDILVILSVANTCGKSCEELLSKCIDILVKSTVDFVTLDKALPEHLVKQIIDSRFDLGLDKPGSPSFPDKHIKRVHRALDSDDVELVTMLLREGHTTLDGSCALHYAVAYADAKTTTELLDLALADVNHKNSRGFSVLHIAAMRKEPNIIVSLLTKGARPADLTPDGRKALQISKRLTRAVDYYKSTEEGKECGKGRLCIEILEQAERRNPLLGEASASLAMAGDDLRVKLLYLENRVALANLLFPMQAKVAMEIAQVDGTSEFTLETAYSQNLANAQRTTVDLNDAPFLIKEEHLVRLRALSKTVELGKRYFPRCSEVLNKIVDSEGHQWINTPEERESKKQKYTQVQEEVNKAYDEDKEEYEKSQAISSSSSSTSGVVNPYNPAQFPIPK

[2] = target: T2, AaTGA6;AaNPR1 (Artemisia annua;Artemisia annua, UniProt A0A481P8G0;A0A481P8F5 1-436;1-569, |)
T2 sequence 1: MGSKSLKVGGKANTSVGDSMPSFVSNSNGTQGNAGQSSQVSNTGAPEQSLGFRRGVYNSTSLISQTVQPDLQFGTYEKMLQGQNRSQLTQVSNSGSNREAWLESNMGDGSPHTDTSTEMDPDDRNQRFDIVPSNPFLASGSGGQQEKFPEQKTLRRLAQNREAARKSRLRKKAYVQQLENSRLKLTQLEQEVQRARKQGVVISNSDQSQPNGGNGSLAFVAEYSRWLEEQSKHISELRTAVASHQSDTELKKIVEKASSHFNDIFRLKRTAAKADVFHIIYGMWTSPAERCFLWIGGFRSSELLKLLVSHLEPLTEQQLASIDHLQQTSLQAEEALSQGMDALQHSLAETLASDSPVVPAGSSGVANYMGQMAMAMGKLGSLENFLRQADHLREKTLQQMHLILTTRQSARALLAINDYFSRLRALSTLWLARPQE
T2 sequence 2: T1 sequence

[3] = target: T3, AaTGA6 (Artemisia annua, UniProt A0A481P8G0 1-436)
T3 sequence: T2 sequence 1

B1: AaERF1 promoter TGACG box probe (40 bp) (dsDNA)
DNA 1: AATGATGCGTCAAGCCATGACGTCACCCCTAATCCTAAAT
DNA 2: ATTTAGGATTAGGGGTGACGTCATGGCTTGACGCATCATT
binding result [1]: no binding | binding result [2]: binds | binding result [3]: binds
